T1: KRM2N-FLAG-6xHIS (human, UniProt Q8NCW0 26-364)
T1 construct: extracellular domain; Negative control; also called human Kremen2; not shown: carboxyl FLAG tag and 6xHIS tag
T1 sequence (looked up): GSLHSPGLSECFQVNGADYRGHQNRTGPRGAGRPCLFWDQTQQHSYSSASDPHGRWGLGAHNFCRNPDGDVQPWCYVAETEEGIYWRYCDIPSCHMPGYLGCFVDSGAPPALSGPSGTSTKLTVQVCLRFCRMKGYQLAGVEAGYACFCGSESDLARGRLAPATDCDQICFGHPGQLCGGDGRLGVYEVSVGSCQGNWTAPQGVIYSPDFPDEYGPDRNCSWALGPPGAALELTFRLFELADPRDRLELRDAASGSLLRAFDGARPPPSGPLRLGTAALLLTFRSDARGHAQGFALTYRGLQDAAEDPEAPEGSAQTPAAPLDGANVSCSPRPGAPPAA

T2: recombinant human WNT3A, P56704
T2 chain: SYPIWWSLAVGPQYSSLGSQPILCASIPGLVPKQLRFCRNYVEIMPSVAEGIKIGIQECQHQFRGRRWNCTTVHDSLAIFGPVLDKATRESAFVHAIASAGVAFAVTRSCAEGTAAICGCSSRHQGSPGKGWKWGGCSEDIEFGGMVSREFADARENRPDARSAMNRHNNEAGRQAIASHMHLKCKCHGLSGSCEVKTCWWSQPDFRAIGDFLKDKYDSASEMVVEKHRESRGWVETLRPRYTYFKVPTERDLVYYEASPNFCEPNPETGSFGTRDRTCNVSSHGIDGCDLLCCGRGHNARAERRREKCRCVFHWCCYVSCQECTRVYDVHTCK


Key:
[1] = target: T1, KRM2N-FLAG-6xHIS; experiment: co-immunoprecipitation from CM with an anti-FLAG antibody, Western blotting
Description: (Y-BB) TIKI2, but not KRM2, interacts with Wnt3a, Xwnt8-Myc, Wnt5a, and Xwnt11. Wnt proteins were each co-expressed with KRM2N or TIKI2N (FLAG tagged) and CM were subjected to immunoprecipitation with an anti-FLAG antibody and Western blotting with indicated antibodies.
The rabbit polyclonal anti-LRP6 antibody has been described (Tamai et al., 2004). Other antibodies were used according to manufacturer's instructions. From Cell Signaling: the rabbit monoclonal anti-Wnt3a (#2721, 1:1000), anti-HA (#3724, 1:1000), anti-Wnt5a (#2530, 1:1000) and anti-FLAG (#8146, 1:2000), from Santa Cruz: anti-Dv12 (sc-13974, 1:1000), anti-HA (sc-7392, 1:1000), and anti-Myc (sc-40, 1:500), from BD Transduction Laboratories: anti-beta-catenin (610154, 1:2000), From Hybridoma Bank: anti-tubulin (E7, 1:5000). Anti-FLAG M2 (A2220) and anti-HA (A2095) Affinity gels are from Sigma Immunoblotting was performed as previously described (MacDonald et al., 2008). For indirect immunofluorescence experiments, HeLa cells were plated on glass coverslips in 12-well plates and transfected with HA*Tiki1 expression construct. To visualize Tiki1 proteins on the cell surface, live cells were incubated with the anti-HA antibody in the culture medium for 30 min. The coverslip was washed with PBS and fixed with 4% paraformaldehyde in PBS for 10 min at room temperature. […]

[2] = target: T2, recombinant human WNT3A, P56704
[3] = target: HA-Wnt3a

Binder	binding result [1]	in vitro cleavage, mass spectrometry [2]	in vitro cleavage of purified HA-Wnt3a by purified protein (Western blotting) [3]
Xwnt11 (ligand, Xenopus, UniProt P49893 23-353, looked up) IQWLGLTVNGSRVAWNESEHCRLLDGLVPDQSQLCKRNLELMQSVVNAAKQTKLTCQMTLSDMRWNCSSVENAPSFTPDLSKGTRESAFVYALASATLSHTIARACASGELPTCSCGATPAEVPGTGFRWGGCGDNLHYGLNMGSAFVDAPMKSSKSAGTQATKIMNLHNNAVGRQVLMDSLETKCKCHGVSGSCSVKTCWKGLQDLPHIANELKSKYLGATKVIHRQTGTRRQLVPRELDIRPVRESELVYLVSSPDYCTKNPKLGSYGTQDRLCNKTSVGSDSCNLMCCGRGYNAYTETIVERCQCKYHWCCYVMCKKCERTVERYVCK	no binding		
Xwnt8-Myc (ligand, also called Xenopus wnt8; not shown: Myc tag) AWSVNNFLMTGPKAYLTYSASVAVGAQNGIEECKYQFAWERWNCPESTLQLATHNGLRSATRETSFVHAISSAGVMYTLTRNCSMGDFDNCGCDDSRNGRIGGRGWVWGGCSDNAEFGERISKLFVDGLETGQDARALMNLHNNEAGRLAVKETMKRTCKCHGISGSCSIQTCWLQLAEFRDIGNHLKIKHDQALKLEMDKRKMRSGNSADNRGAIADAFSSVAGSELIFLEDSPDYCLKNISLGLQGTEGRECLQSGKNLSQWERRSCKRLCTDCGLRVEEKKTEIISSCNCKFHWCCTVKCEQCKQVVIKHFCARRERDSNMLNTKRKNRGHRR	no binding		
TIKI2N-FLAG-6xHIS (protein) RPQPPDGGQCRPPGSQRDLNSFLWTIRRDPPAYLFGTIHVPYTRVWDFIPDNSKAAFQASTRVYFELDLTDPYTISALASCQLLPHGENLQDVLPHELYWRLKRHLDYVKLMMPSWMTPAQRGKGLYADYLFNAIAGNWERKRPVWVMLMVNSLTERDVRFRGVPVLDLYLAQQAEKMKKTTGAVEQVEEQCHPLNNGLNFSQVLFALNQTLLQQESVRAGSLQASYTTEDLIKHYNCGDLSAVIFNHDTSQLPNFINTTLPPHEQVTAQEIDSYFRQELIYKRNERMGKRVMALLRENEDKICFFAFGAGHFLGNNTVIDILRQAGLEVDHTPAGQAIHSPAPQSPAPSPEGTSTSPAPVTPAAAVPEAPSVTPTAPPEDEDPALSPHLLLPDSLSQLEEFGRQRKWHKRQSTHQRPRQFNDLWVRIEDSTTASPPPLPLQPTHSSGTAKPPFQLSDQLQQQDPPG		MS analyses of recombinant human WNT3A cleaved by TIKI2N in vitro indicated cleavage at identical (major and minor) amino terminal sites as observed in cells	upon in vitro incubation with purified HA-Wnt3a, triggered Wnt3a cleavage and the disappearance of the HA epitope
TIKI2NΔ-FLAG-6xHIS (protein) RPQPPDGGQCRPPGSQRDLNSFLWTIRRDPPAYLFGTIHVPYTRVWDFIPDNSKAAFQASTRVYFELDLTDPYTISALASCQLLPHGENLQDVLPHELYWRLKRHLDYVKLMMPSWMTPAQRGKGLYADYLFNAIAGNWERKRPVWVMLMVNSLTERDVRFRGVPVLDLYLAQQAEKMKKTTGAVEQVEEQCHPLNNGLNFSQVLFALNQTLLQQESVRAGSLQASYTTEDLIKHYNCGDLSAVIFNHDTSQLPNFINTTLPPHEQVTAQEIDSYFRQELIYKRNERMGKRVMALLRENEDKICFFAFGAGHFLGNNTVIDILRQAGLEVDHTPAGQAIHSPAPQSPAPSPEGTSTSPAPVTPAAAVPEAPSVTPTAPPEDEDPALSPHLLLPDSLSQLEEFGRQRKWHKRQSTHQRPRQFNDLWVRIEDSTTASPPPLPLQPTHSSGTAKPPFQLSDQLQQQDPPG			failed to do so in the in vitro assay
